In patent publication US20130059781A1 (Novo Nordisk, published 2013):
Numbered stars: 1 amine (or outer) side, 2 acyl side, 3 side chain; on linkers, the order of the positions; unused ones are H or OH. Side chains are listed from the residue outwards. Ends that are not written are not given here. * marks the point of attachment. C18 diacid = O=C(O)CCCCCCCCCCCCCCCCC(=O)*; γGlu = O=C(O)[C@H](CCC(=O)[*:2])N[*:1]; AEEA = NCCOCCOCC(=O)O

B1: N-α-#-Gastrin-17 (16-17) (peptide)
peptide: {C18 diacid-γGlu-AEEA-AEEA}-Asp-Phe-NH2
SMILES: NC(=O)[C@H](Cc1ccccc1)NC(=O)[C@H](CC(=O)O)NC(=O)COCCOCCNC(=O)COCCOCCNC(=O)CC[C@H](NC(=O)CCCCCCCCCCCCCCCCC(=O)O)C(=O)O
B2: N-α-#-[Leu15] Gastrin-17 (15-17) (peptide)
peptide: {C18 diacid-γGlu-AEEA-AEEA}-Leu-Asp-Phe-NH2
SMILES: CC(C)C[C@H](NC(=O)COCCOCCNC(=O)COCCOCCNC(=O)CC[C@H](NC(=O)CCCCCCCCCCCCCCCCC(=O)O)C(=O)O)C(=O)N[C@@H](CC(=O)O)C(=O)N[C@@H](Cc1ccccc1)C(N)=O
B3: N-α-#-[Leu15] Gastrin-17 (14-17) (peptide)
peptide: {C18 diacid-γGlu-AEEA-AEEA}-WLDF-NH2
SMILES: CC(C)C[C@H](NC(=O)[C@H](Cc1c[nH]c2ccccc12)NC(=O)COCCOCCNC(=O)COCCOCCNC(=O)CC[C@H](NC(=O)CCCCCCCCCCCCCCCCC(=O)O)C(=O)O)C(=O)N[C@@H](CC(=O)O)C(=O)N[C@@H](Cc1ccccc1)C(N)=O
B4: N-α-#-[Leu15] Gastrin-17 (13-17) (peptide)
peptide: {C18 diacid-γGlu-AEEA-AEEA}-GWLDF-NH2
SMILES: CC(C)C[C@H](NC(=O)[C@H](Cc1c[nH]c2ccccc12)NC(=O)CNC(=O)COCCOCCNC(=O)COCCOCCNC(=O)CC[C@H](NC(=O)CCCCCCCCCCCCCCCCC(=O)O)C(=O)O)C(=O)N[C@@H](CC(=O)O)C(=O)N[C@@H](Cc1ccccc1)C(N)=O

Target: CCK2 receptor (gastrin receptor)
Experiment: cell-based or functional assay

Row | Relative Receptor Potency | Binder
1 | 0 | QGPWLEEEEEAYGWLK([AEEA-AEEA-γGlu-C18 diacid])F-NH2 (ends and bridges not checked) [[Lys16(N-ε-#),Leu15] Gastrin-17]
2 | 0 | QGPWLEEEEEAYGWLDK([AEEA-AEEA-γGlu-C18 diacid])-NH2 (ends and bridges not checked) [[Lys17(N-ε-#), Leu 15] Gastrin-17]
3 | 40 | QGPWLK([AEEA-AEEA-γGlu-C18 diacid])EEEEAYGWLDF-NH2 (ends and bridges not checked) [[Lys6(N-ε-#),Leu15] Gastrin-17]
4 | 0 | QGPWLEEEEEAYGK([AEEA-AEEA-γGlu-C18 diacid])LDF-NH2 (ends and bridges not checked) [[Lys14(N-ε-#),Leu15] Gastrin-17]
5 | 57 | {C18 diacid-γGlu-AEEA-AEEA}-QGPWLEEEEEAYGWLDF-NH2 (ends and bridges not checked) [N-α-#-[Leu15] Gastrin-17]
6 | 30 | QGPK([AEEA-AEEA-γGlu-C18 diacid])LEEEEEAYGWLDF-NH2 (ends and bridges not checked) [[Lys4(N-ε-#),Leu15] Gastrin-17]
7 | 6 | QGPWLEEEEEAK([AEEA-AEEA-γGlu-C18 diacid])GWLDF-NH2 (ends and bridges not checked) [[Lys12(N-ε-#),Leu15] Gastrin-17]
8 | 100 | QGPWLEEEEEAYGWLDF-NH2 (ends and bridges not checked) [[Leu15] Gastrin-17]
9 | 0 | QGPWLEEEEEAYGWK([AEEA-AEEA-γGlu-C18 diacid])DF-NH2 (ends and bridges not checked) [[Lys15(N-ε-#)] Gastrin-17]
10 | 5 | QGPWLEEEEEAYK([AEEA-AEEA-γGlu-C18 diacid])WLDF-NH2 (ends and bridges not checked) [[Lys13(N-ε-#),Leu15] Gastrin-17]
11 | 60 | QGK([AEEA-AEEA-γGlu-C18 diacid])WLEEEEEAYGWLDF-NH2 (ends and bridges not checked) [[Lys3(N-ε-#),Leu15] Gastrin-17]

Target: CCK2 receptor (gastrin receptor)
Experiment: cell-based or functional assay
Remark: another data set of the same source

Row | Relative Receptor Potency | Binder
12 | 0 | B1
13 | 76 | {C18 diacid-γGlu-AEEA-AEEA}-QGPWLEEEEEAYGWLDF-NH2 (ends and bridges not checked) [N-α-#-[Leu15] Gastrin-17]
14 | 0 | B2
15 | 0 | B3
16 | 30 | {C18 diacid-γGlu-AEEA-AEEA}-EEAYGWLDF-NH2 (ends and bridges not checked) [N-α-#-[Leu15] Gastrin-17 (9-17)]
17 | 39 | {C18 diacid-γGlu-AEEA-AEEA}-EEEEAYGWLDF-NH2 (ends and bridges not checked) [N-α-#-[Leu15] Gastrin-17 (7-17)]
18 | 100 | QGPWLEEEEEAYGWLDF-NH2 (ends and bridges not checked) [[Leu15] Gastrin-17]
19 | 58 | {C18 diacid-γGlu-AEEA-AEEA}-WLEEEEEAYGWLDF-NH2 (ends and bridges not checked) [N-α-#-[Leu15] Gastrin-17 (4-17)]
20 | 6 | B4
21 | 7 | {C18 diacid-γGlu-AEEA-AEEA}-YGWLDF-NH2 (ends and bridges not checked) [N-α-#-[Leu15] Gastrin-17 (12-17)]
